The target of assay [1] is T1, SARS-CoV-2 spike glycoprotein, full-length, prefusion-stabilised, on MDCK-SIAT1 cells (SARS-CoV-2, reference sequence, UniProt P0DTC2, 986KV987 to 986PP987 | 682RRAR685 to 682GSAG685).
T1 construct: also called MDCK-Spike
The experiment in a line: flow cytometry on cells. The conditions noted are these: one partner purified.

Assay [2] has as its target T2, SARS-CoV-2 spike glycoprotein S1+S2 extracellular domain (SARS-CoV-2, reference sequence, UniProt P0DTC2).
T2 construct: also called full-length spike glycoprotein ectodomain
Put plainly: ELISA. (In an ELISA, binding on a coated surface is turned into a signal by an enzyme label.)

B1: FB 9D (antibody, V domains shown)
VH: QVQLVESGAEVKKPGESLKISCQGSGYRFNSYWIAWVRQMPGKGLEWMGSIFPTDSDVRYNPSFQGQVTISADKSISFAYLQWSSLKASDTAIYYCARHWASMVRGVIRASHYYGMDVWGQGTTVTVSS
VL: QPVLTQPPSASGSPGQSVTISCSGASSDIGKYNYVSWYQQLPGKAPKLLIYEVTKRPSGVPDRFSGSKSGNTASLTVSGLQADDEADYYCSSYAFGGSDTRVFGGGTKLTVL
notes: source: HEK293T, transfected; culture supernatant or purified
With B1, the binding result in assay [1] was “binds”. Besides, the OD450 in assay [2] amounted to 1.43 OD450.

B2: FI 4A (antibody, V domains shown)
VH: EVQLVESGGGLVKPGGSLRLSCAASGFTFSRFSMNWVRQAPGKGLEWVSSISSSGSYIYFADSVKGRFTISRDNAKNSLYLQMNSLRAEDTAIYYCATYLFGDSHTYWGQGTLVTVSS
VL: QSVLTQPHSVSESPGKTVTISCTGSSGSIASNYVQWYQQRPGSAPTTVIYEDNQRPSGVPDRFSGSIDSSSNSASLTISGLKTEDEADYYCQSYDSSNLHWVFGGGTKLTVL
notes: as for B1
As for B2, in assay [1], the binding result is “binds”. In assay [2], this molecule returned an OD450 of 1.68 OD450.

B3: EY 6A (antibody, V domains shown)
VH: EVQLVESGGGVVQPGRSLRLSCAASAFTFSSYDMHWVRQAPGKGLEWVAVISYDGSNKYYADSVKGRFTISRDNSKNTLYLQMNSLRAEDTAVYYCAKDGGKLWVYYFDYWGQGTLVTVSS
VL: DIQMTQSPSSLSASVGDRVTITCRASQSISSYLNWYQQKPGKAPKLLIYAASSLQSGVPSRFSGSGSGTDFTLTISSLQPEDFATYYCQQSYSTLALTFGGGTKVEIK
notes: as for B1
Regarding B3, the binding result in assay [1] is given as “binds”. The OD450 in assay [2] came to 1.75 OD450.

B4: FM 7B (antibody, V domains shown)
VH: EVQLVQSGAEVKKPGASVKVSCKASGYTFTSYAMHWVRQAPGQRLEWMGWINTGNGNTKYSQKFQGRVTITRDTSASTAYMELSSLRSEDTAVYYCARDPTYCSSTSCYPFSWFDPWGQGTLVTVSS
VL: NFMLTQPPSVSVAPGQTARITCGGNNIGSKSVHWYQQKPGQAPVLVVYDDSDRPSGIPERFSGSNSGNTATLTISRVEAGDEADYYCQVWDSTGDHSWVFGGGTKLTVL
notes: as for B1
With B4, in assay [1], the binding result was “binds”. In assay [2], the OD450 was 1.8 OD450.

B5: FN 2C (antibody, V domains shown)
VH: EVQLLESGGGVVQPGRSLRLSCAASGFNFNNYGMHWVRQAPGKGLEWVATISYEGSKKFYVDSVKGRFTISKDNSKNTLYLQMNSLRVDDTAFYYCAKRREIFWLGEPPLSDAFDFWGQGTMVTVSS
VL: QSVLTQPPSVSGAPGQRVTISCTGSGSNIGAGYDVHWYQFLPGTAPQLLIYGNNNRPSGVPDRFSGSKSGTSASLAITGLQAEDEADYYCQSYDSSLSGSVFGGGTKLTVL
notes: as for B1
In the case of B5, the binding result in assay [1] is listed as “binds”. This molecule also yielded an OD450 in assay [2] of 1.77 OD450.

B6: EZ 7A (antibody, V domains shown)
VH: EVQLVESGAEVKKPGESLKISCKGSGYSFTSYWIGWVRQMPGKGLEWMGIIYPGDSDTRYSPSFQGQVTISADKSISTAYLQWSSLKASDTAMYYCARGWVYRGFPYYGMDVWGQGTMVTVSS
VL: QSALTQPRSVSGSPGQSVTISCTGTSSDVGGYNYVSWYQQHPGKAPKLMIYDVSKRPSGVPDRFSGSKSGNTASLTISGLQAEDEADYYCCSYAGSYTLVFGGGTKLTVL
notes: as for B1
For B6, the binding result in assay [1] was “binds”. The molecule further displayed an OD450 in assay [2] of 1.66 OD450.
